From publication PMC3501490, “An Investigation of Hierachical Protein Recruitment to the Inhibitory Platelet Receptor, G6B-b” (PLoS ONE, 2012)
pKd: −log10 of the molar value.

Experiments:
[1] = target: SHP-1 tandem (N+C) SH2 domains (UniProt P29350); test: SPR, 37°C
[2] = target: SHP-2 C-terminal SH2 domain (UniProt Q06124); test: SPR, 37°C; details: reference: unphosphorylated peptide; sites Y211,Y237
[3] = target: SHP-2 tandem (N+C) SH2 domains (UniProt Q06124); test: SPR, 37°C
[4] = target: SHP-1 tandem (N+C) SH2 domains (UniProt P29350); test: SPR kinetics, 37°C; details: reference: unphosphorylated peptide; sites Y211,Y237
[5] = target: SHP-2 tandem (N+C) SH2 domains (UniProt Q06124); test: SPR kinetics, 37°C; details: reference: unphosphorylated peptide
Syk SH2 domains = Syk SH2 domains (UniProt P43405); test: SPR; details: reference: unphosphorylated peptide; sites Y211,Y237
Syk = Syk (UniProt P43405); test: biotin-peptide pull-down from platelet lysate; details: reference: unphosphorylated peptide; sites Y211,Y237
SHP-2 = SHP-2 (UniProt Q06124); test: biotin-peptide pull-down from platelet lysate; details: reference: unphosphorylated peptide; sites Y211,Y237
[6] = target: Syk tandem (N+C) SH2 domains (UniProt P43405); test: direct peptide pull-down, Coomassie gel; details: reference: unphosphorylated peptide; sites Y211,Y237
[7] = target: SHP-1 tandem (N+C) SH2 domains (UniProt P29350); test: direct peptide pull-down, Coomassie gel
[8] = target: SHP-2 C-terminal SH2 domain (UniProt Q06124); test: direct peptide pull-down, Coomassie gel; details: reference: unphosphorylated peptide; sites Y211,Y237
[9] = target: SHP-2 N-terminal SH2 domain (UniProt Q06124); test: direct peptide pull-down, Coomassie gel; details: reference: unphosphorylated peptide; sites Y211,Y237
[10] = target: SHP-2 tandem (N+C) SH2 domains (UniProt Q06124); test: direct peptide pull-down, Coomassie gel
[11] = target: G6B-b dual phosphopeptide (biotinylated 60-mer, amino acids 182 to 241, pY211 and pY237) (human) (UniProt O95866); test: pull-down; direct pull down assay: peptide on Streptactin beads incubated with equimolar purified SH2 domains (100 pM [sic] each for the tandem SH2 domains), 250 µl PBS, 30 minutes, room temperature; bound and unbound fractions on Coomassie-stained gels
[12] = target: G6B-b pY211 phosphopeptide (biotinylated 60-mer, amino acids 182 to 241, ITIM phosphorylated) (human) (UniProt O95866); test: as above
[13] = target: G6B-b pY237 phosphopeptide (biotinylated 60-mer, amino acids 182 to 241, ITSM phosphorylated) (human) (UniProt O95866); test: as above
[14] = target: G6B-b dual phosphopeptide (biotinylated 60-mer, amino acids 182 to 241, pY211 and pY237) (human) (UniProt O95866); test: SPR; purified SH2 domains of Syk, PLCγ2, Src and PI3K p85 over immobilised G6B-b peptides; how the KD was obtained is not told
[15] = target: G6B-b dual phosphopeptide (biotinylated 60-mer, amino acids 182 to 241, pY211 and pY237) (human) (UniProt O95866); test: SPR; BIAcore 3000, biotinylated peptides (50 RU) on streptavidin-coated CM5 chip, single SH2 domains flowed at 10 µl/min, HBS buffer pH 7.4, 0.15 M NaCl, 37°C; KD from equilibrium binding, single site fitting
[16] = target: G6B-b pY211 phosphopeptide (biotinylated 60-mer, amino acids 182 to 241, ITIM phosphorylated) (human) (UniProt O95866); test: as above
[17] = target: G6B-b pY237 phosphopeptide (biotinylated 60-mer, amino acids 182 to 241, ITSM phosphorylated) (human) (UniProt O95866); test: as above
[18] = reference: pY211 peptide, sites Y237
[19] = reference: pY237 peptide, sites Y211
[20] = reference: unphosphorylated peptide, sites Y211,Y237

Substance: G6B-b 182-241 (from UniProt O95866) dual pY211/pY237 peptide
- binding against the reference [1, 18]: stronger
- binding against the reference [1, 19]: stronger
- binding against the reference [2]: stronger
- binding against the reference [3, 18]: stronger
- binding against the reference [3, 19]: stronger
- KD [4]: 35.3 nM
- KD ([5]; sites Y211,Y237): 0.48 nM
- KD (Syk SH2 domains): stronger
- binding against the reference (Syk): stronger
- binding against the reference (SHP-2): gained
- other: share of SH2 protein bound [6]: stronger
- other: share of SH2 protein bound [7, 18]: gained; reference little or no association
- other: share of SH2 protein bound [7, 19]: gained; reference little or no association
- other: share of SH2 protein bound [7, 20]: stronger
- binding against the reference [8]: stronger
- binding against the reference [9]: stronger
- other: share of SH2 protein bound [10, 18]: stronger; reference ∼50
- other: share of SH2 protein bound [10, 19]: stronger; reference ∼25
- other: share of SH2 protein bound [10, 20]: stronger

Substance: G6B-b 182-241 (from UniProt O95866) pY237 peptide
- binding against the reference ([5]; sites Y237): stronger
- other: share of SH2 protein bound ([10]; reference: unphosphorylated peptide, sites Y237): stronger

Substance: SHP-2 (N+C)SH2 domains (His-tag) (domain or fragment)
- percent bound [11]: 70%
- percent bound [12]: 50%
- percent bound [13]: 25%

Substance: SHP-1 (N+C)SH2 domains (maltose binding protein-tag) (domain or fragment)
- percent bound [11]: 30%

Substance: Syk tandem (N+C) SH2 domains (domain or fragment)
- pKd [14]: 4.60
- percent bound [11]: 20%

Substance: PLCγ2 N+C tandem SH2 domains (domain or fragment)
- percent bound [11]: 40%

Substance: SHP-2 (N)SH2 (His-tag) (domain or fragment)
- pKd [15]: 6.89
- pKd [16]: 6.96
- pKd [17]: 5.00

Substance: G6B-b 182-241 (from UniProt O95866) pY211 peptide
- binding against the reference ([5]; sites Y211): stronger
- other: share of SH2 protein bound ([10]; reference: unphosphorylated peptide, sites Y211): stronger
